Measured values reported in patent US20180335429.

How the values were obtained:
[1] = system: MMP substrate, 5-FAM-GGPLGVRGKK(CPQ2)-PEG2-C, presented on the iron-oxide nanoparticle (ABN) surface
[2] = system: T1, thrombin substrate, 5-FAM-GGfPRSGGGK(CPQ2)-PEG2-C, presented on the nanoparticle surface
T1 sequence: GGFPRSGGGKC

Chain of recombinant MMP-9 (Enzo Life Sciences) (chain, as listed by the source): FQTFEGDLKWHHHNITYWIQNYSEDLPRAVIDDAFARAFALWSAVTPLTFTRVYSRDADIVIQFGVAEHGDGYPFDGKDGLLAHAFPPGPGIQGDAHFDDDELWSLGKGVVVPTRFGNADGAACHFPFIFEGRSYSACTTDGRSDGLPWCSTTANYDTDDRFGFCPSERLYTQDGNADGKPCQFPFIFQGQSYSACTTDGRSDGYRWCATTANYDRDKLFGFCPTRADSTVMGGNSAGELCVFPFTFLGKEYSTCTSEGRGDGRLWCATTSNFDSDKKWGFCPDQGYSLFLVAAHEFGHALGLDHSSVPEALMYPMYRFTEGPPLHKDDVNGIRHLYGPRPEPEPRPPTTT

Substance | cleavage velocity (V) at 6 µM substrate, high end over the tether lengths tested (0, 4, 24 and 114 PEG subunits) [1] | cleavage velocity (V) at 6 µM substrate, low end over the tether lengths tested (0, 4, 24 and 114 PEG subunits) [1] | fold change of cleavage with tether length at 6 µM substrate [1] | cleavage velocity (V) at 6 µM substrate, long tether end [1] | cleavage velocity (V) at 6 µM substrate, short tether end [1] | cleavage of the substrate at varying linker lengths [2]
recombinant MMP-9 (Enzo Life Sciences) | cleavage velocity (V) increased from 0.24 to 0.96 nM s^-1 at 6 µM | cleavage velocity (V) increased from 0.24 to 0.96 nM s^-1 at 6 µM | MMP9 cleavage was found to increase 4-fold for 6 µM of substrate | – | – | –
thrombin (Haematologic Technologies) | – | – | thrombin cleavage decreased 1-fold at the same substrate concentration | V at 6 µM of substrate decreased from 0.29 to 0.01 nM s^-1 | V at 6 µM of substrate decreased from 0.29 to 0.01 nM s^-1 | thrombin cleavage of a thrombin-selective substrate (fPRSGGG ...) was optimally presented at an intermediate length
